The values below come from article PMC7308313.

This data set relates to rLDHA (Homo sapiens). In words: SPR. To be noted: His-tag pull-down: protein on beads in 50 mM Na3PO4, 300 mM NaCl, 0.01% Tween-20, pH 8.0, RNA binding 2 h in 3.25 mM Na3PO4, 70 mM NaCl.

As for HULC lncRNA (in vitro transcribed), the Kd – broadly, the equilibrium constant for the complex coming apart – was determined as 0.029 µM. This counts as double-digit nanomolar.
